# Legend:
# NK92^CIRB21-icasp9 cells = test: Killing of icasp9-expressing NK92 cells by dimerizer drug AP1093; type: cell-based, human
# Procedure: (§1) L-Holin killing assays—Cells selected cell for L-Holin were tested in a 24 well plate using 32,000 cells per well. 24 hours later doxycycline was added at 1 μg/ml for 4-5 days. Cells selected for icasp9 were tested in a 24 well plate using 32,000 cells per well. 24 hours later dimerizer drug AP1093 was added at 2 or 10 nM for 4-5 days. Surviving cells were quantified using crustal violet assay as described in (Jounaidi et al, Cancer Research 2017).
# Next, we examined whether high doses of AP1093 could completely kill NK92^CIRB21−icasp9 cells.
# NK92^CIRB21 cells [1] = test: Growth of NK92^CIRB21 cells in the presence of lactate dehydrogenase inhibitor R-GNE140 (cell count); type: cell-based, human; conditions: total cell count, FIG. 11, read-out: IC50 of R-GNE140 for inhibiting growth of NK92^CIRB21 cells
# Procedure: (§2) The ability of NK92^CIRB and NK92^CIRB21 cells to grow in the presence of the lactate dehydrogenase inhibitor R-GNE140 was tested. Cells were incubated with increasing concentrations of R-GNE140 and total number of cells were counted.
# NK92^CIRB cells [2] = test: Growth of NK92^CIRB cells in the presence of lactate dehydrogenase inhibitor R-GNE140 (cell count); type: cell-based, human; conditions: total cell count, FIG. 11, read-out: IC50 of R-GNE140 for inhibiting growth of NK92^CIRB cells
# Procedure: as §2
# [3] = cited from earlier work
# PC-3 cells = type: cell-based, human
# Text: Interleukins IL4, IL7, IL9, IL15 and IL21 belong to the same family as IL2, and use the same common IL2Rg. They all have their own private receptors, except for IL2 and IL15, which use IL2Rβ in addition to their own alpha receptors. […] Thus the entire cytoplasmic domain of IL21R was cloned then added Head-to-Tail to the C-terminal of IL2Rβ in the chimera CIRB. […] As shown herein, it was possible to emulate the activation signals from multiple cytokines that activate NK cells via different receptors by using only one ligand and a hybrid receptor.
# NK92^CIRB21 cells [4] = test: L-Holin killing of NK92^CIRB21 cells (doxycycline induction, cell count); type: cell-based, human; conditions: NK92^CIRB21 cells expressing L-Holin, total cell count, FIG. 5B / FIG. 12
# Procedure: NK92^CIRB21 pool selection—NK92^CIRB21 cells expressing L-Holin were selected with puromycin and NK92^CIRB21 cells expressing icasp9 and GFP were sorted by flow cytometry for GFP.
# as §1
# Mouse glioblastoma cell line GL261 was infected by a retrovirus expressing L-Holin. Clones were selected, L-Holin expression was induced with doxycycline, and cell viability was determined. […]
# Expression of L-Holin in NK92^CIRB21+Holin cells was induced with doxycycline. Total number of cells were counted after doxycycline treatment. […] After 13 days of growth in the absence of doxycycline, total number of cells were counted. Untreated cells were counted as a control.
# The ability of L-holin to trigger death of NK92^CIRB cells and NK92^CIRB21 cells was tested. […] Total number of cells were counted after 13 days of growth in the absence of doxycycline. Untreated cells were counted as a control. […]
# NK92^CIRB cells [5] = test: L-holin killing of NK92^CIRB cells (doxycycline induction, cell count); type: cell-based, human; conditions: total cell count, FIG. 12
# Procedure: The ability of L-holin to trigger death of NK92^CIRB cells and NK92^CIRB21 cells was tested. L-bolin expression was induced in NK92^CIRB cells and NK92^CIRB21 cells with doxycycline. Cells were washed to remove doxycycline and then cells were cultured for 13 days. Total number of cells were counted after 13 days of growth in the absence of doxycycline. Untreated cells were counted as a control. […] This sensitivity is consistent with the reliance of NK92^CIRB21 cells on mitochondria, which are lysed by L-holin during cell killing.
# glioblastoma GL261 cells = test: L-Holin killing assay in GL261 clones (doxycycline induction, crystal violet); type: cell-based, mouse
# Procedure: L-Holin GL261 and icasp9 GL261 clones were selected as single cells by extreme dilution in 96 well plates. Clones were grown and evaluated for their response to dox (L-Holin) or AP1093 (icasp9).
# as §1
# Mouse glioblastoma cell line GL261 was infected by a retrovirus expressing L-Holin. Clones were selected, L-Holin expression was induced with doxycycline, and cell viability was determined. Four clones were tested: 2 clones with high expression levels of L-Holin (Clone 1, Clone 5) and 2 clones with low expression levels of L-Holin (Clone 6, Clone 9).
# We compared the ability of L-Holin to trigger cell death to that of icasp9 in GL261 cells. GL261 cells were infected by a retrovirus expressing L-Holin or a retrovirus expressing icasp9. Clones were selected, L-Holin expression was induced with doxycycline, and cell viability was determined. […]
molecule,measurement,setting,value
CC[C@H](C(=O)N1CCCC[C@H]1C(=O)O[C@H](CCc1ccc(OC)c(OC)c1)c1cccc(OCC(=O)NCCNC(=O)COc2cccc([C@@H](CCc3ccc(OC)c(OC)c3)OC(=O)[C@@H]3CCCCN3C(=O)[C@@H](CC)c3cc(OC)c(OC)c(OC)c3)c2)c1)c1cc(OC)c(OC)c(OC)c1 [AP1093],viability of NK92^CIRB21-icasp9 cells in the presence of AP1093,"NK92^CIRB21-icasp9 cells; 10 nM AP1093, FIG. 9A",remained viable
same,viability of NK92 cells expressing GFP and icasp9 in AP1093,"NK92^CIRB21-icasp9 cells; 10 nM AP1093, after 5 days, GFP detection by immunofluorescence, FIG. 9B",viable in 10 nM of AP1093 even after 5 days
O=C1N[C@](c2ccc(N3CCOCC3)cc2)(c2ccsc2)CC(O)=C1Sc1ccccc1Cl [R-GNE140],IC50,NK92^CIRB21 cells [1],10.6 µM
same,IC50,NK92^CIRB cells [2],4.7 µM
IL2: immunostimulatory cytokine,half-life of IL2 in vivo,[3],less than 10 min
IL21: soluble interleukin of the IL2 family added to NK92^CIRB cells,effect of soluble interleukin on cytotoxicity of NK92^CIRB against PC-3 cells,PC-3 cells,dramatically enhance cytotoxicity
"L-Holin: pore-forming holin protein from bacteriophage, SEQ ID NO: 1, expressed under a tetracycline regulated promoter (protein, Enterobacteriaceae) MPEKHDLLAAILAAKEQGIGAILAFAMAYLRGRYNGGAFTKTVIDATMCAIIAWFIRDLLDFAGLSSNLAYITSVFIGYIGTDSIGSLIKRFAAKKAGVEDGRNQ",detectable cells after L-Holin induction and 13 days of growth in the absence of doxycycline,NK92^CIRB21 cells [4],remained undetectable
same,detectable cells after L-Holin induction and 13 days of growth in the absence of doxycycline,NK92^CIRB21 cells [4]; listed as L-holin,undetectable
same,detectable cells after L-Holin induction and 13 days of growth in the absence of doxycycline,NK92^CIRB cells [5],some NK92^CIRB cells survived and were detectable
same,triggering of cell death compared with icasp9 expressed at low levels,"glioblastoma GL261 cells; GL261 cells, icasp9 Clone 2, 2 nM or 10 nM AP1903, FIGS. 7A-7B",more effective at triggering cell death than icasp9 expressed at low levels
same,cell death as a result of L-Holin expression,"glioblastoma GL261 cells; GL261 clones with high (1, 5) and low (6, 9) L-Holin expression, doxycycline induced, FIG. 5A","majority, if not all, of GL261 cells died"

# From patent US20240207405A1, “IL2 TETHERED TO ITS RECEPTOR IL2RBETA AND PORE-FORMING PROTEINS AS A PLATFORM TO ENHANCE IMMUNE CELL ACTIVITY” (The General Hospital Corporation, priority 2021, published 2024)
